The values below come from US20140186823.

For data set [1], the target named is MS-(B1-L88N)8 L88N (Mycobacterium smegmatis) (UniProt A0QR29). The note with it: four 5' 2'-O-methyl-uracil on SEQ 19; 3' Cholesteryl-TEG on SEQ 20; mean S.D. of current levels; helicase translocation, +140 mV; unit assumed.
Data set [2] addresses MspA NNN-RRK pore MS-(B1)8 (Mycobacterium smegmatis) (UniProt A0QR29). The note with it: four 5' 2'-O-methyl-uracil on SEQ 19; 3' Cholesteryl-TEG on SEQ 20; mean S.D. of current levels; helicase translocation, +140 mV; unit assumed.

Consider “NNNNTTTTTTTTTTTTTTTTTTTTTTTTTTTTTTTTTTTTTTTTTTTTTTTTTTGGTTGTTTCTGTTGGTGCTGATATTGCTTTTGATGCCGACCCTAAATTTTTTGCCTGTTTGGTTCGCTTTGAGTCTTCTTCGGTTCCGACTACCCTCCCGACTGCCTATGATGTTTATCCTTTGAATGGTCGCCATGATGGTGGTTATTATACCGTCAAGGACTGTGTGACTATTGACGTCCTTCCCCGTACGCCGGGCAATAACGTTTATGTTGGTTTCATGGTTTGGTCTAACTTTACCGCTACTAAATGCCGCGGATTGGTTTCGCTGAATCAGGTTATTAAAGAGATTATTTGTCTCCAGCCACTTAAGTGAGGTGATTTATGTTTGGTGCTATTGCTGGCGGTATTGCTTCTGCTCTTGCTGGTGGCGCCATGTCTAAATTGTTTGGAGGCGGTC / GCAATATCAGCACCAACAGAAACAACCTTTTTTTTTTTTTTTTTTTTTTTTTTTTTT”, for which the activity came to 1.79 pA in data set [1] and 2.3 pA in data set [2].
